# What was measured:
# [1] = target: T1, mesothelin-Fc recombinant protein (human, UniProt Q13421 296-580, limits assumed); assay: flow cytometry, T cells with CAR mRNA, mesothelin-Fc + PE-anti-IgG-Fc; Control 0.63
# T1 construct: construct not described; also called Meso-Fc; not shown: Fc part
# Method: (§1) Mesothelin CAR mRNA obtained in Example 26 above was introduced into A549 tumor cells and T cells by electroporation, and the procedures are as follows: A549 tumor cells and T cells were collected and washed 3 times with the Opti-MEM medium. The cell pellet was resuspended in the Opti-MEM medium and the cell concentration was adjusted to 1×10e7 cells/mL. 10 μg of RNA was aliquoted into 1.5-mL EP tubes, 100 μL of T cells or A549 cells were added, followed by mixing well. 100 μL of cells mixed with RNA were added to the BTX electroporation cuvette and slight tapping was performed to avoid air bubbles. Electroporation was performed using a BTX instrument under the following parameters: for T cells: 500 V voltage, 0.7 ms; for A549 tumor cells: 300 V voltage, 0.5 ms. The cells were then transferred to a pre-warmed medium and cultured at 37° C. The binding of mesothelin CART cells to the mesothelin-Fc recombinant protein was determined by FACS staining. […] T cells without CAR molecules served as the control (“Mock”).
# CD40-Fc [2] = target: T2, CD40-Fc ( for this staining reagent …, UniProt P25942); assay: flow cytometry, T cells with diabody mRNA and M12 CAR mRNA, CD40-Fc + PE-anti-Fc; E1 0.48, E2 (M12 only) 0.77
# T2 construct: soluble Fc fusion; Staining reagent, detected with PE-anti-Fc
# Meso-biotin = target: T3, Meso-biotin; assay: flow cytometry, T cells with diabody mRNA only, Meso-biotin + PE-Streptavidin; E1 0.29
# T3 construct: Meso-Fc and PE-anti-Fc for this staining
# CD40-Fc [3] = target: T2, CD40-Fc; assay: flow cytometry, T cells with 10 µg diabody mRNA only, CD40-Fc + PE-anti-Fc; E1 (no mRNA) 0.48
# [4] = target: T1, mesothelin-Fc recombinant protein; assay: flow cytometry, T cells with CAR mRNA, mesothelin-Fc + PE-anti-IgG-Fc; Control 0.97
# Method: as §1
# T1 sequence (Q13421 other isoform, or with tags, fused parts or gaps limits assumed): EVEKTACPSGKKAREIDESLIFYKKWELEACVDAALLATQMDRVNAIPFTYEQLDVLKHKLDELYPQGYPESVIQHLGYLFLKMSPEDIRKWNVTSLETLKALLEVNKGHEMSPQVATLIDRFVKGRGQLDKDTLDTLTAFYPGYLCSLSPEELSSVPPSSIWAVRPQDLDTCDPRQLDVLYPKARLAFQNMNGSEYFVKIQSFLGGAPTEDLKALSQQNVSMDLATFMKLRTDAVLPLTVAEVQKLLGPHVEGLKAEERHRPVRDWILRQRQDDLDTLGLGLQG
Binder,percent of cells in the gate [1],percent of cells in the gate [4],other results
"anti-mesothelin scFv-M7 (scFv, On mRNA-electroporated T cells as CAR) scFv: DIRLTQSPSSLSASLGDRVTITCRASQAISSALAWYQQKPGKAPRLLIYDASTLESGVPSRFSGSGSGTDFTLTISSLQPEDFATYYCQQADSFPLTFGGGTKLEIKGGGGSGGGGSGGGGSQVQLVQSGAEVKKSGESLKISCKGSGYGFGAYWIAWVRQMPGKGLEWMGIIYPGDSRVIYSPYFQGQVTISADKSISTAYLQWSSLKASDTAMYYCARFGGPKFATNWFDIWGQGTTVTVSS",36.3%,–,–
"anti-mesothelin scFv-M6 (scFv, On mRNA-electroporated T cells as CAR) scFv: EIVMTQSPATLSLSPGERATLSCRASQSIGNSLAWYQQKPGQAPRLLIYDVSNRATGIPARFSGSGSGTDFTLTISSLEPEDFAVYYCQHRYSWPLTFGGGTKVEIKGGGGSGGGGSGGGGSQVQLVQSGGGLVKPGGSLRLSCAASGFTFSDYYMSWIRQAPGKGLEWVSYISSSGSTIYYADSVKGRFTISRDNAKNSLYLQMNSLRAEDTAVYYCARDGYRTHNWFDPWGQGTLVTVSS",83.4%,–,–
"anti-mesothelin scFv-M15 (scFv, On mRNA-electroporated T cells as CAR) scFv: DIQLTQSPSSLSASIGDRVTITCRASQGVNSALAWYQQKPGKPPNLLIYDASSLESGVPSRFSGSGSGRDFTLTISSLQPEDFATYYCQQFSSYPLTFGGGTKVDIKGGGGSGGGGSGGGGSQVQLVQSGAEVKKPGASVKVSCKASGYTFTSYYMHWVRQAPGQGLEWMGIINPSGGSTSYAQKFQGRVTMTRDTSTSTVYMELSSLRSEDTAVYYCARAQRGGSVYFDYWGQGTLVTVSS",48.8%,–,–
"4.6 (bispecific antibody, Expressed from mRNA in T cells; A signal peptide is not described; also called parent diabody 4.6) single chain, scFv-G4S-scFv: QVQLVQSGAEVKKPGSSVKVSCKASGGTFSSYAISWVRQAPGQGLEWMGMINPSGGTTSYAQKFQGRVTMTRDTSTSTVYMELSSLRPEDTAVYYCARGFRMDQWGQGTLVTVSSGGGGSGGGGSGGGGSQSALTQPPSASGSPGQSVTISCTGTSSDVGAYNFVSWYQQHPGNAPKLIIYDVRKRPSGIPDRFSASKSGNTASLTVSGLQADDEADYYCSSYAGNNNLVFGGGTKLTVLGGGGSQVKLQESGPGLVKPSETLSITCTVSGFSLSDYGVHWVRQSPGKGLEWLGVIWAGGGTNYNSALMSRKTISKDNSKSQVFLKMSSLTAADTAVYYCARDKGYSYYYSMDYWGQGTTVTVSSGGGGSGGGGSGGGGSDIQLTQSPSSLSVSVGDRVTISCRASESVEYYVTSLMQWYQQKPGQAPKLLIFAASNVESGVPSRFSGSGSGTNFTLTISSVQEEDFAMYFCQQSRKVPYTFGGGTKLEIK",–,–,percent of cells in the gate (CD40-Fc [2]): 83.9%; percent of cells in the gate (Meso-biotin): 0.72%; percent of cells in the gate (CD40-Fc [3]): 81.6%
"5.17 (bispecific antibody, how the two are joined there is not described; also called diabody part of M12-5.17 and 5.17-M12) single chain, scFv-G4S-scFv: QVQLVQSGAEVKKPGSSVKVSCKASGGTFSSYAISWVRQAPGQGLEWMGMINPSGGTTSYAQKFQGRVTMTRDTSTSTVYMELSSLRPEDTAVYYCARGFRMDQWGQGTLVTVSSGGGGSGGGGSGGGGSQSALTQPPSASGSPGQSVTISCTGTSSDVGAYNFVSWYQQHPGNAPKLIIYDVRKRPSGIPDRFSASKSGNTASLTVSGLQADDEADYYCSSYAGNNEMVFGGGTKLTVLGGGGSQVKLQESGPGLVKPSETLSITCTVSGFSLSDYGVHWVRQSPGKGLEWLGVIWAGGGTNYNSALMSRKTISKDNSKSQVFLKMSSLTAADTAVYYCARDKGYSYYYSMDYWGQGTTVTVSSGGGGSGGGGSGGGGSDIQLTQSPSSLSVSVGDRVTISCRASESVEYYVTSLMQWYQQKPGQAPKLLIFAASNVESGVPSRFSGSGSGTNFTLTISSVQEEDFAMYFCQQSRKVPYTFGGGTKLEIK",–,–,percent of cells in the gate (CD40-Fc [2]): 88.1%; percent of cells in the gate (Meso-biotin): 1.12%; percent of cells in the gate (CD40-Fc [3]): 82.1%
"5.12 (bispecific antibody) single chain, scFv-G4S-scFv: QVQLVQSGAEVKKPGSSVKVSCKASGGTFSSYAVSWVRQAPGQGLEWMGMINPSGGTTSYAQKFQGRVTMTRDTSTSTVYMELSSLRPEDTAVYYCARGFRMDQWGQGTLVTVSSGGGGSGGGGSGGGGSQSALTQPPSASGSPGQSVTISCTGTSSDVGAYNFVSWYQQHPGNAPKLIIYDVRKRPRGIPDRFSASKSGNTASLTVSGLQADDEADYYCSSYAGNNNLVFGGGTKLTVLGGGGSQVKLQESGPGLVKPSETLSITCTVSGFSLSDYGVHWVRQSPGKGLEWLGVIWAGGGTNYNSALMSRKTISKDNSKSQVFLKMSSLTAADTAVYYCARDKGYSYYYSMDYWGQGTTVTVSSGGGGSGGGGSGGGGSDIQLTQSPSSLSVSVGDRVTISCRASESVEYYVTSLMQWYQQKPGQAPKLLIFAASNVESGVPSRFSGSGSGTNFTLTISSVQEEDFAMYFCQQSRKVPYTFGGGTKLEIK",–,–,percent of cells in the gate (CD40-Fc [2]): 87.9%; percent of cells in the gate (Meso-biotin): 1.11%; percent of cells in the gate (CD40-Fc [3]): 93.6%
"anti-mesothelin scFv-M27 (scFv, On mRNA-electroporated T cells as CAR) scFv: EIVLTQSPGTLSLSPGERATLSCRASQPIVASHLAWYQHKPGQAPRLLIYGASTRAAGIPDRFSGSGSGTDFTLTISRLEPEDFAVYFCQQYGISPFTFGPGTKVDIKGGGGSGGGGSGGGGSQVQLVQSGAEVKKPGESLKISCQGSGYSFTDYWIGWVRQAPGQGLEWMGWITPNNGNTNYAPKFQGRVTLTTDTSTSTAYMELRSLTSDDTAVYFCARRGRNSSGYLYYYSMDVWGQGTTVTVSS",–,76.3%,–
"anti-mesothelin scFv-M31 (scFv, On mRNA-electroporated T cells as CAR) scFv: QSALTQPPSASGSPGQSVTISCTGTSSDIGGYNSVSWYQQHPGKAPKLIIYGVSRRPSGVPDRFSGSKSANTASLTVSGLQAVDEADYYCSSYGGSNNLLFGGGTKLTVLGGGGSGGGGSGGGGSEVHLVESGGGLAQPGGSLRLSCAASGFSFSSSWMAWVRQAPGKGLEWVANIKQDGSSQYYVDSVKGRFTISRDNAKNSLSLQMNSLRAEDTAVYYCARDIWYSIDYWGQGTLVTVSS",–,67.9%,–
"anti-mesothelin scFv-M28 (scFv, On mRNA-electroporated T cells as CAR) scFv: QSALTQPPSASGSPGQSVTISCSGTSSDVGGYNFVSWYQHHPGKAPKLMIYEVSKRPSGVPDRFSGSKSGNTASLTVSGLQAEDEADYYCSSYAGRNNPYLFGTGTKLTVLGGGGSGGGGSGGGGSQLQLQESGAEVKKPGSSVKVSCKASGGTFSSYAISWVRQAPGQGLEWMGGIIPIFGTANYAQKFQGRVTITADESTSTAYMELSSLRSEDTAVYYCARDLGGYSYGHGLDYWGQGTLVTVSS",–,82.8%,–
"anti-mesothelin scFv-M13 (scFv, On mRNA-electroporated T cells as CAR) scFv: AIRMTQSPSSLSASVGDRVTITCRASQGISNSLAWYQQKPGKAPKLLLYAASRLESGVPSRFSGSGSGTDYTLTISSLQPEDFATYYCQQYYSTPFTFGPGTKLEIKGGGGSGGGGSGGGGSQVQLVQSGAEVKKPGSSVKVSCKTSADTFSANTINWVRQAPGHGLEWMGRIIPSLNIRDYAQEFQGRVTFTADESTNTVYMQLTSLRSEDTAVYYCARDPGSTWSPNQFFPHWGQGTLVTVSS",71.1%,–,–
"anti-mesothelin scFv-M37 (scFv, On mRNA-electroporated T cells as CAR) scFv: DIVMTQTPSSLSASVGDRVTITCRASQGISNYLAWFQQKPGKAPKPLIYAASSLQSGVPSKFSGSGSGTDFTLTISNLQPEDFATYICQQYSSYPITFGQGTRLEIKGGGGSGGGGSGGGGSQLQLQESGPGLVKPSETLSLTCAVSGGSISPYYWTWIRQSPGKAMEWMGYIHYSGRTNYNPSLESRATFSVDTSKNQISLKLNSVTAADTAVYYCTKVGDPGLFDYWGPGTLVTVSS",–,74.2%,–
"anti-mesothelin scFv-M8 (scFv, On mRNA-electroporated T cells as CAR) scFv: DIQLTQSPSSLSASVGDRVTITCRASQSISSSLNWYQQKPGKAPKLLIYAASSLQSGVPSRFSGSGSGTDFTLTISSLQPEDFATYSCQQSYSTPLTFGGGTKVEIKGGGGSGGGGSGGGGSQVHLVESGGGVVQPGRSLRVSCAASGFTFSGYAMYWVRQAPGKGLEYVSAITTNGGSTNYADSVKGRFTISRDNSKNTLYLQMSSLRAGDTAVYYCARGAPGYRGYYMDVWGKGTTVTVSS",80.8%,–,–
"anti-mesothelin scFv-M32 (scFv, On mRNA-electroporated T cells as CAR) scFv: DIRMTQSPSSLSASVGDRVTVTCQASEDINNSLNWYQQKPGKAPQLLIYDASDLETGVPSRFSGRGSGRDFTLTISSLQPEDFATYYCQQLNSYPLTFGGGTKLEIKGGGGSGGGGSGGGGSQVQLVQSGAEVKKPGASVKVSCKASGFTFIGYYLHWVRQAPGQGLEWMGIINPSGGRTSMAQKFQGRVSMTTDTSTGTVYLDLGRLGSDDTAVYYCARADNWNAGSMDVWGNGTTVTVSS",–,84.1%,–
M18 (scFv) chain 1: QVQLVQSGGGLVQPGGSLRLSCAASGFTFSSYWMHWVRQAPGKGLVWVSRINSDGSSTSYADSVKGRFTISRDNAKNTLYLQMNSLRAEDTAVYYCVRTGWVGSYYYYMDVWGKGTTVTVSS chain 2: EIVLTQSPGTLSLSPGERATLSCRASQSVSSNYLAWYQQKPGQPPRLLIYDVSTRATGIPARFSGGGSGTDFTLTISSLEPEDFAVYYCQQRSNWPPWTFGQGTKVEIK,9.53%,–,–

# Source: patent US20250381223A1 (UTC THERAPEUTICS SHANGHAI, published 2025)
